Data: patent publication US20210210159A1, “COMPUTATIONAL PROTEIN DESIGN USING TERTIARY OR QUATERNARY STRUCTURAL MOTIFS” (Trustees of Dartmouth College, priority 2018, published 2021)

Assay: Fast Protein Liquid Chromatography / size-exclusion chromatography, oligomeric state
Format: physicochemical
Settings: concentration of at least 10 μM
Text: Based on the standards, the dimeric protein would be expected to elute at the volume indicated by a dotted line, which eliminates the possibility of design oligomerization.

native mCherry: Red Fluorescent Protein mCherry (PDB code 2H5Q), design template (SEQ ID NO. 1) [reference compound]
oligomeric state in solution: monomeric
